Reference: publication PMC5423124

Target: Schistosoma japonicum glutathione-S-transferase with mPyTK at position 52 (GST-E52mPyTK) (Schistosoma japonicum) [GST: P08515]
Test: cross-linking

## Schistosoma japonicum glutathione-S-transferase with mPyTK at position 52 (GST-E52mPyTK) (from UniProt P08515 2-218) (enzyme)
  photo-cross-linking yield of the covalent dimer: 53%
